Source: the supplement of paper PMC9112550, “Optimization of the antimicrobial peptide Bac7 by deep mutational scanning” (BMC Biology, 2022)

Test system: Escherichia coli TOP10
Experiment: shrunken log2 fold change of peptide-encoding DNA abundance (4.5 h post-induction vs induction); higher = less antimicrobial activity (less host growth inhibition)
Conditions: time post-induction: 4.5 h; library: site-saturation at positions 5, 18, 19, 20
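Note: peptides expressed intracellularly from a pBAD plasmid library in pooled LB shake-flask culture, induced with 0.3% L-arabinose, DNA abundance read by NGS, three biological replicates, DESeq2 with apeglm shrinkage.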

Sequence	shrunken log2 fold change
RRIRTRPPRLPRPRPRPLMHPRP	-0.454
RRIRNRPPRLPRPRPRPNEVPRP	-0.0252
RRIRHRPPRLPRPRPRPRNSPRP	-0.05
RRIRGRPPRLPRPRPRPCWRPRP	0.248
RRIRARPPRLPRPRPRPWKMPRP	-0.235
RRIRWRPPRLPRPRPRPCPSPRP	0.0767
RRIRLRPPRLPRPRPRPPWNPRP	0.939
RRIRTRPPRLPRPRPRPTVEPRP	-0.152
RRIRFRPPRLPRPRPRPKPCPRP	0.3
RRIRERPPRLPRPRPRPWGTPRP	-0.121
RRIRLRPPRLPRPRPRPIRNPRP	-0.45
RRIRNRPPRLPRPRPRPASAPRP	0.0499
RRIRNRPPRLPRPRPRPLCMPRP	-0.218
RRIRNRPPRLPRPRPRPMQRPRP	0.00752
RRIRCRPPRLPRPRPRPTLYPRP	-0.396
RRIRHRPPRLPRPRPRPCIMPRP	-0.0341
RRIRCRPPRLPRPRPRPECLPRP	-0.109
RRIRYRPPRLPRPRPRPQVEPRP	-0.218
RRIRVRPPRLPRPRPRPQGDPRP	-0.0558
RRIRERPPRLPRPRPRPYEKPRP	-0.0219
RRIRRRPPRLPRPRPRPYPGPRP	-0.123
RRIRDRPPRLPRPRPRPTHRPRP	0.0815
RRIRIRPPRLPRPRPRPKLAPRP	-0.117
RRIRRRPPRLPRPRPRPAYFPRP	0.401
RRIRNRPPRLPRPRPRPYPRPRP	0.0154

Sequence	shrunken log2 fold change
RRIRGRPPRLPRPRPRPAVPPRP	0.686
RRIRYRPPRLPRPRPRPLMWPRP	-0.0343
RRIRYRPPRLPRPRPRPPKFPRP	-0.0892
RRIRIRPPRLPRPRPRPAHHPRP	-0.176
RRIRARPPRLPRPRPRPDTMPRP	0.0783
RRIRIRPPRLPRPRPRPPAIPRP	0.00229
RRIRKRPPRLPRPRPRPAHKPRP	0.0404
RRIRGRPPRLPRPRPRPSPKPRP	0.619
RRIRARPPRLPRPRPRPKMGPRP	0.297
RRIRNRPPRLPRPRPRPIWNPRP	-0.146
RRIRHRPPRLPRPRPRPQICPRP	0.00386
RRIRTRPPRLPRPRPRPQEHPRP	-0.0662
RRIRFRPPRLPRPRPRPTLVPRP	-0.141
RRIRYRPPRLPRPRPRPMHIPRP	-0.0235
RRIRRRPPRLPRPRPRPSFTPRP	0.0475
RRIRKRPPRLPRPRPRPKVYPRP	-0.124
RRIRHRPPRLPRPRPRPATMPRP	-0.123
RRIRTRPPRLPRPRPRPRCPPRP	0.0716
RRIRRRPPRLPRPRPRPWCLPRP	-0.214
RRIRQRPPRLPRPRPRPRASPRP	0.392
RRIRYRPPRLPRPRPRPWCGPRP	-0.974
RRIRHRPPRLPRPRPRPTQTPRP	-0.0128
RRIRWRPPRLPRPRPRPAALPRP	0.257
RRIRPRPPRLPRPRPRPADKPRP	0.0949
RRIRKRPPRLPRPRPRPCWGPRP	0.0634

Sequence	shrunken log2 fold change
RRIRPRPPRLPRPRPRPFSTPRP	-0.317
RRIRARPPRLPRPRPRPKKWPRP	0.0405
RRIRVRPPRLPRPRPRPWPHPRP	-0.103
RRIRYRPPRLPRPRPRPYCSPRP	-0.00208
RRIRWRPPRLPRPRPRPVNTPRP	-0.0848
RRIRQRPPRLPRPRPRPNPGPRP	-0.205
RRIRSRPPRLPRPRPRPNMTPRP	-0.247
RRIRTRPPRLPRPRPRPSLAPRP	0.105
RRIRMRPPRLPRPRPRPMLEPRP	0.0346
RRIRIRPPRLPRPRPRPRRVPRP	-0.0339
RRIRVRPPRLPRPRPRPELFPRP	0.181
RRIRGRPPRLPRPRPRPYWAPRP	0.211
RRIRCRPPRLPRPRPRPLLRPRP	0.88
RRIRDRPPRLPRPRPRPLNSPRP	0.0283
RRIRFRPPRLPRPRPRPSEHPRP	-0.323
RRIRCRPPRLPRPRPRPCRNPRP	-0.154
RRIRERPPRLPRPRPRPDHEPRP	-0.0943
RRIRMRPPRLPRPRPRPGENPRP	0.00897
RRIRRRPPRLPRPRPRPLKLPRP	-0.0808
RRIRWRPPRLPRPRPRPILYPRP	-0.515
RRIRIRPPRLPRPRPRPERYPRP	-0.175
RRIRCRPPRLPRPRPRPIQSPRP	0.0164
RRIRWRPPRLPRPRPRPRQSPRP	0.236
RRIRMRPPRLPRPRPRPAGWPRP	1.37
RRIRWRPPRLPRPRPRPRWLPRP	0.224

Sequence	shrunken log2 fold change
RRIRWRPPRLPRPRPRPQKPPRP	0.0546
RRIRYRPPRLPRPRPRPGVTPRP	-0.048
RRIRHRPPRLPRPRPRPNSRPRP	-0.0698
RRIRMRPPRLPRPRPRPNMDPRP	0.0442
RRIRCRPPRLPRPRPRPERAPRP	0.675
RRIRERPPRLPRPRPRPYEHPRP	-0.278
RRIRFRPPRLPRPRPRPNSWPRP	-0.0266
RRIRSRPPRLPRPRPRPKWVPRP	-0.209
RRIRCRPPRLPRPRPRPAHWPRP	0.337
RRIRCRPPRLPRPRPRPIVDPRP	0.0181
RRIRMRPPRLPRPRPRPVCHPRP	0.224
RRIRARPPRLPRPRPRPKATPRP	0.347
RRIRERPPRLPRPRPRPRPCPRP	-0.0205
RRIRFRPPRLPRPRPRPGRFPRP	-0.223
RRIRKRPPRLPRPRPRPRDLPRP	0.255
RRIRSRPPRLPRPRPRPMGRPRP	0.0253
RRIRSRPPRLPRPRPRPITGPRP	-0.105
RRIRMRPPRLPRPRPRPVPGPRP	0.882
RRIRTRPPRLPRPRPRPVDIPRP	-0.282
RRIRMRPPRLPRPRPRPADYPRP	0.0259
RRIRNRPPRLPRPRPRPWMPPRP	-0.105
RRIRTRPPRLPRPRPRPGMMPRP	-0.211
RRIRNRPPRLPRPRPRPINLPRP	-0.176
RRIRARPPRLPRPRPRPDIAPRP	0.668
RRIRERPPRLPRPRPRPLGFPRP	-0.118

Sequence	shrunken log2 fold change
RRIRCRPPRLPRPRPRPIERPRP	0.0355
RRIRDRPPRLPRPRPRPHDGPRP	0.1
RRIRSRPPRLPRPRPRPGEKPRP	-0.000687
RRIRLRPPRLPRPRPRPRWYPRP	-0.206
RRIRCRPPRLPRPRPRPICAPRP	0.107
RRIRTRPPRLPRPRPRPQWDPRP	-0.0974
RRIRNRPPRLPRPRPRPLPPPRP	0.5
RRIRHRPPRLPRPRPRPDQTPRP	-0.0379
RRIRMRPPRLPRPRPRPWGIPRP	0.0388
RRIRHRPPRLPRPRPRPTGVPRP	0.18
RRIRCRPPRLPRPRPRPHLDPRP	-0.0622
RRIRSRPPRLPRPRPRPMCFPRP	-0.149
RRIRERPPRLPRPRPRPRFAPRP	0.0577
RRIRLRPPRLPRPRPRPWWLPRP	-0.0334
RRIRWRPPRLPRPRPRPGPNPRP	0.194
RRIRNRPPRLPRPRPRPHKKPRP	-0.00756
RRIRDRPPRLPRPRPRPAWRPRP	0.812
RRIRPRPPRLPRPRPRPCWSPRP	0.0606
RRIRNRPPRLPRPRPRPITKPRP	-0.113
RRIRMRPPRLPRPRPRPYHHPRP	-0.702
RRIRLRPPRLPRPRPRPYCGPRP	-0.0687
RRIRRRPPRLPRPRPRPGWMPRP	0.0476
RRIRPRPPRLPRPRPRPSWMPRP	-0.288
RRIRGRPPRLPRPRPRPTEGPRP	0.795
RRIRKRPPRLPRPRPRPRDIPRP	0.246
